Results taken from the supplement of paper PMC9170038.

System: MS2 coat protein
Experiment: apparent KD of MS2 coat protein; higher = weaker reporter binding
Details: Eterna round: R107
Description: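 RNA-MaP round R107: designed RNA switches with theophylline, tryptophan, arginine or FMN aptamers are transcribed on-chip within common flanks. They are titrated with SNAP-549-labelled MS2 coat protein in RNA-MaP buffer (100 mM Tris pH 7.5, 80 mM KCl, 4 mM MgCl2), without ligand or with the indicated ligand. Median apparent KD per design.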

[1] = input ligand: theophylline 20 uM
[2] = input ligand: theophylline 2 mM
[3] = input ligand: tryptophan 2.4 mM

| Sequence | apparent KD of MS2 coat protein (input ligand: arginine 13.2 mM) | apparent KD of MS2 coat protein [1] | apparent KD of MS2 coat protein [2] | apparent KD of MS2 coat protein (input ligand: none) | apparent KD of MS2 coat protein [3] |
| --- | --- | --- | --- | --- | --- |
| ACGCACAUGAGGAUCACCCAUGUGAACCUACGAGGACCGGUACGGCCGCCACUCGCUGUUCCUACCGGCUUAAUUGUCACUGGGU [theeternabot_sameState_MS2_Trp_A_19] | 0.0273 µM | 0.0544 µM | 0.049 µM |  |  |
| ACGCCCAGGUAGGCUUAAUGGGAAAUGGAAGGAGCGCUGAUGCAAGCAGGUAGGUCGCCAACGAACAUGAGGAUCACCCAUGUAA [Same State - Arginine A (Freestyle 2)] | 0.0163 µM | 0.0282 µM | 0.0238 µM | 0.0223 µM | 0.0207 µM |
| ACGCUGAUUGAUUACAAUCAGCGAAAAGAUACCAGCCUGGAUAUCGGCCCUUGGCAGCUUAAACCUGAGGAUCACCCUGGUAAAA [TheoAS 13 #MS2Right #BothOrNeither #AlternativeMS2] | 0.1 µM | 0.126 µM | 0.0729 µM | 0.0936 µM | 0.147 µM |
| ACGGAGAUGUCGGCCGCCACUGAACUCAUGUUCAACAUGAGGAUCACCCAUGUACCUUAGUUUAUCAGGACCGGGACAUAUACGA [JR_ExcTryptoB_Sub003] | 0.0797 µM | 0.17 µM | 0.183 µM |  |  |
| ACGGUUGGUUCGUUACCUCAUAUCUCAGAAGGAGCGGGCAGUAGUCCAGGUAGGUCGCUGGGACAUGAGGAUCACCCAUGUCUUA [Aataer] | 0.0224 µM | 0.139 µM | 0.211 µM | 0.103 µM | 0.166 µM |
| ACGUAAUGCAGAAGGAGCGUCUUAUUAAUACAUGAGGAUCACCCAUGUUAUAUUUAUGGUAGACAGGUAGGUCGCUGAAGUACGA [JR_SSArginiB_Sub008] | 0.00886 µM | 0.0173 µM | 0.0132 µM | 0.0118 µM | 0.0107 µM |
| ACGUCCGGAUUAAUCGUGGGCAUGGUCGAUACCAGUAUUUUAAUCUACCCUUGGCAGCGACAUGAGGAUCACCCAUGUGCGAUGA [XTheo A #18] | 0.0143 µM | 0.023 µM |  |  | 0.0169 µM |
| ACGUUGAAGUCGGCCGCCACUGAUUUCAUGUUCAACAUGAGGAUCACCCAUGUACCUUAUGUUAACAGGACCGGGACGUAUACGA [JR_SSTryptoB_Sub002] | 0.264 µM | 0.341 µM | 0.551 µM |  |  |
| ACGUUUUAGUCGGCCGCCACUGAUCUCAUGUUCAACAUGAGGAUCACCCAUGUACCUUUUUUUAUCAGGACCGGGACGUAAUAGA [JR_SSTryptoB_Sub005] | 0.085 µM | 0.328 µM | 0.359 µM |  |  |
| ACUACAAAGUAGUAUAUACGAAAGUAUAGACGAGGACCGGUACGGCCGCCACUCGGUACCGGAAACACAUGAGGAUCACCCAUGU [Ex_TrypA - 3H] | 0.017 µM | 0.025 µM | 0.023 µM |  |  |
| ACUAGUUGUGCAGAUACCAGGCAUGAGGAUCACCCAUGUUUGGGAUGUUCGCAUCUUCCUGUCCCUUGGCAGCUGUACAUCUAGA [Omei Theo B Exc v6] | 0.0499 µM | 0.167 µM | 0.0315 µM | 0.0485 µM | 0.15 µM |
| ACUCGGUGUUUGUUGCUCCGAGUGUAUGAUACCAGUCAGUUUUAUGGCCCUUGGCAGCAUAGGACAUGAGGAUCACCCAUGUGUU [#01 SameState-TheophyllineA] | 0.0329 µM | 0.049 µM | 0.0338 µM | 0.0449 µM | 0.0508 µM |
| ACUCUGUCGGGUGAUACCAGCCUCGGCACAUCUCGCGCCGAACAUGAGGAUCACCCAUGUGGCCCUUGGCAGCACAUGACAAAUC [Rimalearve] | 0.0641 µM | 0.618 µM |  |  | 0.512 µM |
| ACUUCAUGAGGUGAUACCAGCCAAUGACAUGAGGACAUGAGGAUCACCCAUGUUUAUGUAGGCCCUUGGCAGCACUGUAACAUGA [Same State Theophylline B 4] | 0.0195 µM | 0.0318 µM |  |  | 0.0197 µM |
| ACUUGAUACUGAAGGAGCGUCGGAUAAACUCGCACAUGAGGAUCACCCAUGUAUAUGAAUCGACAGGUAGGUCGCAGUAUCGAGU [Arg B SS t6] | 0.013 µM | 0.0197 µM | 0.0156 µM | 0.0136 µM | 0.0153 µM |
| ACUUUGUCGGGUGAUACCAGCCUCGGCACAUCUCGUGCCGAACAUGAGGAUCACCCAUGUGGCCCUUGGCAGCACAUGACAACUC [Quceanteri] | 0.145 µM | 0.637 µM |  |  | 0.608 µM |
| AGAAUACAUGUUUUAAUACGGUUUACUGAUACCAGUGUAUCUAUUCACCCUUGGCAGCAGAGACAUGAGGAUCACCCAUGUAUUA [JR_Nu_ExcTheophyA_Sub022] | 0.025 µM | 0.0417 µM |  |  | 0.0461 µM |
| AGAAUAUAGUCGGCCGCCACUCUACAUACAUGAGGAUCACCCAUGUUUACAUAGUGAAUAUACAUGAGGACCGGGACAUAGGCAU [JR_SSTryptoB_Sub020] | 0.0216 µM | 0.0261 µM | 0.0237 µM |  |  |
| AGACAUGAGGAUCACCCAUGUAGCACGGAUACCAGAUCCAGAUGUAUCCCUUGGCAGCUGUGGUACAGCGUUGCAACGCUCCUAG [Exclusion - Theophylline A (Freestyle 17)] | 0.0176 µM | 0.0285 µM |  |  | 0.0181 µM |
| AGACAUGAGGAUCACCCAUGUAGCAUGGAUACCAGAUCCAGAUUUAUCCCUUGGCAGCUGUGGUAAAGUGAUGGAUUGCUCCUAG [Exclusion - Theophylline A (Freestyle 7)] | 0.0381 µM | 0.0558 µM |  |  | 0.0369 µM |
| AGACAUGAGGAUCACCCAUGUAGCAUGGAUACCAGAUGUAGAUUUGUCCCUUGGCAGCUGUGGUAAAGUGAUGCAUUGCUCCUAG [Exclusion - Theophylline A (Freestyle 4)] | 0.0344 µM | 0.0615 µM |  |  | 0.0333 µM |
| AGACAUGAGGAUCACCCAUGUAGUACGGAUACCAGAUCCAGAUUUAUCCCUUGGCAGCUGUGGUACAGCGUUGCAACGCUCCUAG [Exclusion - Theophylline A (Freestyle 15)] | 0.0136 µM | 0.0221 µM |  |  | 0.0154 µM |
| AGACAUGUAAGAUAAUUGACUUUUACAGAUACCAGACUGUCUAAUGUCCCUUGGCAGCUGCAUUACAUGAGGAUCACCCAUGUUA [JR_ExcTheophyA_Sub011] | 0.0159 µM | 0.0203 µM |  |  | 0.0175 µM |
| AGACAUGUAGGAUAAUUGACUAUUACAGAUACCAGACUGUCUAAUGUCCCUUGGCAGCUGCAUUACAUGAGGAUCACCCAUGUUA [JR_ExcTheophyA_Sub012] | 0.0165 µM | 0.0227 µM |  |  | 0.0204 µM |
| AGACGAGAAGAGGUUUACCCAUGUACAGAAGGAGCGUCGUUGACGACAGGUAGGUCGCUGAAAACAUGAGGAUCACCCAUGUUGA [#05 Exclusion - Arginine A] | 0.0629 µM | 0.0353 µM | 0.0397 µM | 0.0311 µM | 0.0317 µM |
| AGAGGUGCAACAGAUACCAGUCUACCGUACCUCAGAGAACAUGAGGAUCACCCAUGUAUAGACCCUUGGCAGCUGAUGUUAUUCA [Theo B Ex t3] | 0.0257 µM | 0.0367 µM |  |  | 0.0224 µM |
| AGAGUUAGACAAAAGUCUAGCUCACCAGAAGGAGCGUCCGAAAGGACAGGUAGGUCGCUGGUACACGAGGAUCACCCGUGUUCCU [ArgAS 16 #OpenEnded #AlternativeMS2] | 0.0276 µM | 0.0404 µM | 0.0503 µM | 0.0386 µM | 0.0368 µM |
| AGAGUUAGACAAAAGUCUAGCUCACCAGAAGGAGCGUCCGAAAGGACAGGUAGGUCGCUGGUACCUGAGGAUCACCCGGGUUCCU [ArgAS 17 #OpenEnded #AlternativeMS2] | 0.134 µM | 0.172 µM | 0.244 µM | 0.282 µM | 0.0805 µM |
